The results in this text go back to paper PMC3462190, “A Peptidic Unconjugated GRP78/BiP Ligand Modulates the Unfolded Protein Response and Induces Prostate Cancer Cell Death” (PLoS ONE, 2012).

The test system of one experiment is BPH-1 cells. Briefly: Clonogenic assay. Type of experiment: cell-based, Human. The note with it: benign prostate cells, 19-mer vector vs control; at least three experiments. Here is the method: Figure 6 Selectivity of action of the Bag-1 peptide. A Amino acid sequence of the 19mer peptide and its deletion mutants. B GST pull-down assay performed incubating 400 µg of 22Rv.1 cell lysate and 25 µg of GST-fused deletion mutants of the 19mer peptide. After the pull-down experiment, Western blots were carried out with anti-GRP78/BiP and GST antibodies. C. Fluorescence polarization (FP) assays with a 10 nM FITC-labeled 7-mer Bag-1 peptide and dilutions of the GST-fused substrate binding domain of GRP78 in 60 µl of Tris-GSH buffer (50 mM Tris, 10 mM reduced glutathione and 0.1% BSA, pH 8.0). Triplicate samples were measured after 5 h of incubation at room temperature with an Infinite F-200 reader (Tecan) with excitation at 490 nm and emission at 535 nm. Binding constants were determined from three independent experiments using non-linear regression in Sigma Plot 10.0. D. Competition assays with a complex of 10 nM of FITC-labeled Bag-1 7-mer peptide and 0.75 mg/ml GST-fused GRP78 substrate binding domain was measured against a dilution series from 100 µM to 0.1 nM of wild-type Bag-1 7-mer peptide (filled line) or triple mutant peptide (dotted line) in 40 µl of Tris-GSH buffer. […] Fluorescence polarization was determined as described above and IC50 values were determined in Sigma Plot. […] The colonies were stained and quantified. […]

Another experiment has as its system 22Rv.1 xenograft tumor. Briefly: TUNEL assay on xenograft tumor sections. As to conditions: 22Rv.1 xenografts, clones P25, P29 and P42 vs V18, V19 and V33. The format is in vivo, athymic nude mice. Here is the method: Tissues were fixed in 10% formalin for 16 h at room temperature, stored in ethanol (50%), paraffin embedded, and sectioned 5 µm thick with a Leica RM 2155 microtome. Apoptotic cells were detected via terminal deoxynucleotidyl transferase-mediated deoxyuridine-triphosphate-biotin nick end labeling (TUNEL) assay using the DNA fragmentation ApopTag® peroxidase in situ apoptosis detection kit (Millipore, Schwalbach, Germany).
Figure 4 The Bag-1 peptide inhibits prostate cancer cell growth in vivo. A. Stable clones of 22Rv.1 cells show reduced cell viability in vitro. Stable clones were seeded in a 96-well plate and the cell number in each well was estimated by measuring the ratio between the wavelength of excitation and emission 560/590 nm using the CellTiter-Blue™ proliferation assay. The bar charts represent the mean of at least four independent experiments ±SD (*p<0.05). B. Determination of the level of the Bag-1 expressed in the 22Rv.1 clones. Cellular extracts of 22v.1 stable clones were subjected to Western blot analysis. An anti-HA antibody was used to detect the peptide and an anti-β-actin antibody for equal loading control. […] Tumor size was measured once per week using a caliper and expressed as tumor volume in mm^3. […] Nuclei are stained blue-purple with hematoxylin while apoptotic cells detected with the TUNEL assay are stained brown. […]

The next experiment has as its system GADD45. Briefly: Interaction with GADD45 (results not shown). The format is binding.
The test system of a further experiment is LNCaP xenograft tumor. Briefly: LNCaP tumor xenograft study. The format is in vivo, athymic nude mice. As to conditions: mean and SD of 4–10 tumors. Here is the method: All animal experiments were performed according to European and German statutory regulations. For generation of xenograft models 5×10^6 LNCaP cells were resuspended in a solution of 50% Matrigel® (BD Bioscience, Heidelberg, Germany) in PBS or 5×10^6 22Rv.1 cells in 100 µl of PBS were subcutaneously injected into both flanks of 6–8 week-old athymic nude mice. Tumor size was measured with a caliper every week. Tumors derived from the […], […] Tumor size was assessed measuring three perpendicular diameters according to the formula: V = (1/6) [π] (d1d2d3), where π is a mathematic constant and d1, d2 and d3 represent the three spatial dimensions (width, depth and height). Mice were euthanized by cervical dislocation and the tumors removed for further analysis.

Where no end group is shown, it is not given here.

For “19-mer: Bag-1L 202–220 (TPLSALGIQDGCRVMLIGK; not fully specified)”, the “BPH-1 growth in clonogenic assay” value with BPH-1 cells is listed as “not growth inhibited”.

B1: Bag-1 peptide: internal sequence of 68 amino acids of Bag-1 (Bag1-L 202–269), HA-tagged, expressed from pcDNA3 (peptide)
chain: TPLSALGIQDGCRVMLIGKKNSPQEEVELKKLKHLEKSVEKIADQLEELNKELTGIQQGFLPKDLQAE
modifications: also: HA tag, end not given here
Take B1: the “TUNEL positive cells (apoptosis)” value in the experiment on 22Rv.1 xenograft tumor is given as “strong signals indicative of massive apoptosis”. In addition, the “interaction with GADD45” value with GADD45 is recorded as “interact with GADD45”. In addition, the “Tumor weight, clone P12” value with LNCaP xenograft tumor (LNCaP clone P12, termination 8 weeks, vector V82 0.65±0.29 g (8 weeks)) came to 0.04 ± 0.03 g. Also, the “Tumor weight, clone P35” value in the experiment on LNCaP xenograft tumor (LNCaP clone P35, termination 6 weeks, vector V69 0.22±0.03 g (6 weeks)) turned out to be 0.05 ± 0.01 g.
